The target of assay [1] is T1, OLS from C. sativa (Cannabis sativa, UniProt B1Q2B6).
T1 construct: made in house
T1 sequence (B1Q2B6 1-385): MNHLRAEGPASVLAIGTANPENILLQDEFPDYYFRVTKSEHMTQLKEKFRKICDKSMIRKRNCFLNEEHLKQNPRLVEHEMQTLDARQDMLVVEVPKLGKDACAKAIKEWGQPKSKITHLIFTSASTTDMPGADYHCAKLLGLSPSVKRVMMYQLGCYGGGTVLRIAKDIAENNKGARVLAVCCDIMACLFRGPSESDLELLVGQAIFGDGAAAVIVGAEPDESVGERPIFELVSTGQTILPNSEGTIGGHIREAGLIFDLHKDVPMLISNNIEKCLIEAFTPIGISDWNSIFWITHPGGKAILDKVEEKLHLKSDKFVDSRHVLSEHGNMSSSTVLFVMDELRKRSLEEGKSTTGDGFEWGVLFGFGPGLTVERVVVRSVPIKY
Kind of assay: Product inhibition assay with butyryl-CoA and malonyl-CoA. Type of assay: biochemical. To be noted: for amount of DVA+DVL formed by the enzyme: at 1 mM of the added product, butyryl-CoA substrate; for enzyme activity: at 2 mM of the added product. On the procedure:
(§1) Assays were performed in a total volume of 50 μL in 100 mM Tris, pH 7.5 buffer containing 100 μM malonyl-CoA; 100 µM hexanoyl-CoA; a malonyl-CoA regenerating system comprising malonyl-CoA synthetase, excess malonate, and ATP; and excess purified olivetolic acid cyclase (OAC). The major product in this assay was olivetolic acid (OLA), and the triketide pentyl diacetic acid lactone (PDAL) was a side product. N-His-tagged purified enzymes were assayed under these assay conditions at enzyme concentrations and reaction times suitable for initial rate measurements of product formation. Reactions were initiated by addition of the PKS, then incubated for 30 min. Subsequently, 10 μL of reaction solution was removed and quenched into 15 volumes of 75% acetonitrile containing 0.1% formic acid and internal standards, then centrifuged to pellet denatured protein. Supernatants were transferred to fresh plates for LC-MS analysis of OLA, olivetol (OL), and PDAL as described in the Method section above.
(§2) Assays were performed as described in Example 3 with the following exception: instead of hexanoyl-CoA (C6), butyryl-CoA (C4) was used as substrate along with malonyl-CoA, in order to evaluate the inhibitory effect of the products with hexanoyl-CoA (i.e., OLA, OL and PDAL) on the activity of the enzymes. Accordingly, the products in this assay were the tetraketides divarinic acid (DVA) and divarinol (DVL) and the triketide propyl diacetic acid lactone (propyl-DAL) (see FIG. 4). The rates to form these products were measured in the presence of various concentrations of OLA, OL, and PDAL.

In assay [2] the test system is AAZ32094.1 from Oncidium hybrid cultivar (SEQ ID NO:2). The assay is described as above. Type of assay: biochemical. The note with it: for effect on formation of the tetraketide products (DVL+DVA) / effect on the triketide product propyl-DAL: increasing concentrations of the added product. On the procedure: as §1, §2
The test system of assay [3] is QDX46968.1 from Anoectochilus roxburghii (SEQ ID NO:6). The description is as above. Type of assay: biochemical. To be noted: for effect on formation of the tetraketide products (DVL+DVA) / effect on the triketide product propyl-DAL: increasing concentrations of the added product. On the procedure:
as §1, §2

The test system of assay [4] is E. coli derivative strain which overexpressed an acyl-CoA synthetase (fadD) gene and expressed an olivetolic acid cyclase (OAC) from Cannabis sativa. The assay is described as follows: OL, OLA and PDAL production in E. coli from genome-integrated Type-III PKS genes. Type of assay: cell-based. To be noted: for Total: OL + OLA + PDAL; for OL / OLA / PDAL: constitutive promoter, 4 mM hexanoic acid. On the procedure:
(§3) To test olivetolic acid production in E. coli, strains comprising a putative OLS gene and an OAC gene from C. sativa were inoculated in multi-well plates containing LB supplemented with 1% glucose and appropriate concentrations of antibiotics. After 6 hours of cultivation at 32° C., the cells were transferred with a 10% inoculum to a P-limited seed medium (see Table 2) and cultivated for ˜18 hours at 32° ° C. to reach an OD of 2.0-4.0. The cultures were transferred with a 20% inoculum in a P-minimal medium (see Table 3) supplemented with 2% glucose and appropriate concentrations of antibiotics. After 3 hours of cultivation at 32° C., the culture was spiked with 4 mM hexanoic acid (˜OD 1.5-2.0). The resulting cultures were then harvested at either 3 hours or 21 hours post hexanoic acid spike; a final OD was taken. 300 μL of butyl acetate containing 500 mg/L undecanoic acid was added to each multi-well plate. The plates were then vortexed for 30 minutes at 1500 rpm and centrifuged for 10 minutes at 4500 rpm. 50 μL of organic layer was transferred to a 96-well plate and derivatized with 50 μL of N,O-Bis(trimethylsilyl)trifluoroacetamide (BSTFA). The plate was then incubated at room temperature for 2 hours to allow for complete derivatization. The samples were then run on GC-FID for analytical quantification of olivetolic acid (OLA), olivetol (OL), PDAL, and hexanoic acid.
(§4) Olivetol, PDAL, OLA, HTAL, CBGA and combinations thereof were analyzed by LCMS or LCMS/MS methods using C18 reversed phase chromatography coupled to either EXACTIVE™ (ThermoFisher) or QTRAP® 4500 (Sciex) mass spectrometers.
(§5) For reversed phase LCMS, compounds were identified by their LC retention times and MRM transitions specific to the compounds. LCMS/MS analysis was conducted on a Shimadzu UHPLC system coupled with AB Sciex QTRAP 4500 mass spectrometer. Agilent Eclipse XDB C18 column (4.6×3.0 mm, 1.8 μm) was used with a 1-min gradient elution at 1 mL/min using water containing 0.1% ammonia acetate as mobile phase A and 90% methanol containing 0.1% ammonia acetate as mobile phase B. The LC column temperature was maintained at 45° C. Negative ionization mode was used for all the analytes.
Three of the type-III PKS genes from Example 1 were integrated under control of a constitutive promoter into an E. coli derivative strain which overexpressed an acyl-CoA synthetase (fadD) gene and expressed an olivetolic acid cyclase (OAC) from Cannabis sativa.
(§6) The in vivo assay procedure and analytical methods were performed as described above.

Assay [5] shares this test system. The assay is described as follows: OL, OLA and PDAL production in E. coli from plasmid-expressed Type-III PKS genes. In kind it is cell-based. The note with it: gene on plasmid; for Total: OL + OLA + PDAL; for OL / OLA / PDAL: constitutive promoter, culture spiked with 4 mM hexanoic acid. How it is done: as §3, §4, §5
The genes for 20 Type-III PKS enzymes were codon optimized for E. coli and cloned under control of a constitutive promoter into an expression vector (p15a replicon, carbenicillin resistance marker). The 20 plasmids were transformed into an E. coli derivative strain which overexpressed an acyl-CoA synthetase (fadD) gene and expressed an olivetolic acid cyclase (OAC) from Cannabis sativa.
as §6

[6] abbreviates: at 1 mM OLA, butyryl-CoA substrate.

As for `CCCCCc1cc(O)cc(O)c1` [OL, olivetol], in assay [1], the “amount of DVA+DVL formed by the enzyme” value came to 2 µM and the enzyme activity result is “almost completely inactive”. Moreover, in assay [2], the “effect on formation of the tetraketide products (DVL+DVA)” value (from here on “effect on formation”) was “not inhibited” and the “effect on the triketide product propyl-DAL” value is on record as “decreased”. In assay [3], the “effect on formation” value is listed as “not inhibited” and the “effect on the triketide product propyl-DAL” value is recorded as “decreased”.
Turning to `CCCCCc1cc(O)cc(O)c1C(=O)O` [OLA, olivetolic acid], in assay [1], the “amount of DVA+DVL formed by the enzyme” value is 1.5 µM and the enzyme activity result was “almost completely inactive”. Also, in assay [2] (setting [6]), the “amount of DVA+DVL formed” value was “about 9 μM” and the “amount of the triketide propyl-DAL” value was 3 to 5 µM. In addition, in assay [2], the “effect on formation” value was “not inhibited, but rather stimulated” and the “effect on the triketide product propyl-DAL” value is recorded as “inhibited”. In assay [3] (setting [6]), the “amount of DVA+DVL formed” value is reported as “about 9 μM” and the “amount of the triketide propyl-DAL” value lay within 3 to 5 µM. Also, in assay [3], the “effect on formation” value was “not inhibited, but rather stimulated” and the “effect on the triketide product propyl-DAL” value is “inhibited”.

B1: AIM58716.1: Type-III PKS enzyme from Cymbidium hybrid cultivar (protein)
chain: MPSLESVKKSNRADGFASILAIGRANPENFIEQSTYPDFFFRVTNSEHLVNLKKKFQRICDKTAIRKRHFVWNEELLNANPCLGTFMDNSLNVRQEFAIREIPKLGAEAATKAIQEWGQPKSRITHLIFCTTSGMDLPGADYQLTQILGLNPNIERVMLYQQGCFAGGTTLRLAKCLAESRKGARVLVVCAETTAVLFRAPSEEHQDDLVTQALFADGASALIVGADPDETAHERASFVIVSTSQVLLPDSAGAIGGHVSEGGLIATLHRDVPQIVSKNVGKCLEEAFTPLGISDWNSIFWVPHPGGRAILDQVEERVGLKPEKLIVSRHVLAEYGNMSSVCVHFALDEMRKRSKKEGKATTGEGLDWGVLFGFGPGLTVETVVLHSVPI
modifications: Cymbidium hybrid cultivar; (1)..(390) AIM58716.1
Turning to B1, in assay [4], the “products produced by strains with chromosomally expressed enzyme” value is “produced olivetol (OL), olivetolic acid (OLA) and pentyl diacetic acid lactone (PDAL)”; the Total turned out to be 927 µM; the OL amounted to 249 µM; the OLA turned out to be 472 µM. The PDAL in assay [4] is 206 µM. Moreover, in assay [5], the Total was found to be 1045 µM, the OL stood at 427 µM, the OLA stood at 436 µM and the PDAL came out at 181 µM.

B2: A0A0D9W1R8: Type-III PKS enzyme from Leersia perrieri (protein, listed as Leersia perrieri)
chain: MGSQGEYYNKEGRGQAAILGIGSAVPPYELPQSSFPDYYFDVSNSNHRQDLKAKFAKICERTMIEKRCVYMSEEFLRSNPSVTAYSSPSIDVRQRLTDATVPELGAAAARVAIADWGRPASEISHLVMCSTVSGCMPGADYEVVKLLGLPLSTKRCMMYHIGCHGGGTVLRIAKDIAENNPGARVLVVCSEVISMALRGPSDSNMGNLVGQALFGDAGAAVVVGTDPVESCGERALFEMVAAMQDIIPDTEEMVAKLREDGLLYSLHRDVPVHIEANIEAIVNKSGVGAKAADWNEDVFWLVHPGGRDILDRVARRLGLRHDKVEVSREVMRKHGNTLSSCVVIAMEEMRRRSAERGMGTAGEGLEWGLLFGFGPGLTVETILLRAPLTHPPPCAHAAVRPQ
modifications: (1)..(402) ProtKB - A0A0D9W1R8
B2: in assay [5], the Total is 0 µM, the OL is 0 µM, the OLA was determined as 0 µM and the PDAL came to 0 µM.

B3: B1Q2B6: Cannabis sativa olivetol synthase (OLS), 3,5,7-trioxododecanoyl-CoA synthase (protein, listed as Cannabis sativa)
chain: MNHLRAEGPASVLAIGTANPENILLQDEFPDYYFRVTKSEHMTQLKEKFRKICDKSMIRKRNCFLNEEHLKQNPRLVEHEMQTLDARQDMLVVEVPKLGKDACAKAIKEWGQPKSKITHLIFTSASTTDMPGADYHCAKLLGLSPSVKRVMMYQLGCYGGGTVLRIAKDIAENNKGARVLAVCCDIMACLFRGPSESDLELLVGQAIFGDGAAAVIVGAEPDESVGERPIFELVSTGQTILPNSEGTIGGHIREAGLIFDLHKDVPMLISNNIEKCLIEAFTPIGISDWNSIFWITHPGGKAILDKVEEKLHLKSDKFVDSRHVLSEHGNMSSSTVLFVMDELRKRSLEEGKSTTGDGFEWGVLFGFGPGLTVERVVVRSVPIKY
modifications: (1)..(385) B1Q2B6 OLIS_CANSA 3,5,7-trioxododecanoyl-CoA synthase
As for B3, in assay [5], the Total worked out at 1072 µM, the OL amounted to 324 µM, the OLA turned out to be 279 µM and the PDAL was 470 µM.

B4: QCO76957.1: Type-III PKS enzyme from Dendrobium officinale (protein)
chain: MPSLESIRKAPRANGFASILAIGRANPENFIEQSTYPDFFFRITNSEHLVDLKKKFQRICDKTAIRKRHFVWNEEFITTNPCLHTFMDKSLDVRQEVAIREIPKLGAKAAAKAIQEWGQPKSRITHLIFCTTSGMDLPGADYQLTQILGLNPNVERVMLYQQGCFAGGTTLRLAKCLAESRKGARVLVVCAETTTVLFRGPSEEHQEDLVTQALFADGASALIVGADPDEAAHERASFVIVSTSQVLLPDSAGAIGGHVSEGGLLATLHRDVPKIVSKNVEKCLEEAFTPFGITDWNSIFWVPHPGGRAILDLVEERVGLKPEKLLVSRHVLAEYGNMSSVCVHFALDEMRKRSAIEGKATTGEGLEWGVVFGFGPGLTVETVVLRSVPL
modifications: Dendrobium officinale; (1)..(390) QCO76957.1
For B4, in assay [4], the “products produced by strains with chromosomally expressed enzyme” value was “produced olivetol (OL), olivetolic acid (OLA) and pentyl diacetic acid lactone (PDAL)”; the Total was determined as 483 µM; the OL is 178 µM; the OLA was 223 µM. For the same molecule, the PDAL in assay [4] turned out to be 82 µM. Besides, in assay [5], the Total was 2095 µM, the “levels of OLA relative to the E. coli strain with OLS from C. sativa” value was “over two-fold”, the OL came to 579 µM and the OLA was determined as 754 µM. Besides, the PDAL in assay [5] is 761 µM.

Source of the values: US20240240160A1, “NOVEL OLIVETOL SYNTHASES FOR C[…]” (priority 2021, published 2024).
